Source: the supplement of paper PMC9112550, “Optimization of the antimicrobial peptide Bac7 by deep mutational scanning” (BMC Biology, 2022)

Tested on: Escherichia coli TOP10
Assay: shrunken log2 fold change of peptide-encoding DNA abundance (4.5 h post-induction vs induction); higher = less antimicrobial activity (less host growth inhibition)
Conditions: time post-induction: 4.5 h; library: site-saturation at positions 5, 18, 19, 20
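Further: peptides expressed intracellularly from a pBAD plasmid library in pooled LB shake-flask culture, induced with 0.3% L-arabinose, DNA abundance read by NGS, three biological replicates, DESeq2 with apeglm shrinkage.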

RRIRTRPPRLPRPRPRPNKTPRP
shrunken log2 fold change: -0.0171

RRIRTRPPRLPRPRPRPNLPPRP
shrunken log2 fold change: 0.0474

RRIRTRPPRLPRPRPRPNPDPRP
shrunken log2 fold change: -0.0402

RRIRTRPPRLPRPRPRPNPHPRP
shrunken log2 fold change: -0.177

RRIRTRPPRLPRPRPRPNQAPRP
shrunken log2 fold change: 0.00454

RRIRTRPPRLPRPRPRPNTCPRP
shrunken log2 fold change: -0.395

RRIRTRPPRLPRPRPRPNTFPRP
shrunken log2 fold change: -0.668

RRIRTRPPRLPRPRPRPNTWPRP
shrunken log2 fold change: -0.178

RRIRTRPPRLPRPRPRPNVWPRP
shrunken log2 fold change: 0.0477

RRIRTRPPRLPRPRPRPNYFPRP
shrunken log2 fold change: -0.062

RRIRTRPPRLPRPRPRPPALPRP
shrunken log2 fold change: 0.311

RRIRTRPPRLPRPRPRPPANPRP
shrunken log2 fold change: 0.0303

RRIRTRPPRLPRPRPRPPCKPRP
shrunken log2 fold change: -0.193

RRIRTRPPRLPRPRPRPPDWPRP
shrunken log2 fold change: 0.705

RRIRTRPPRLPRPRPRPPFLPRP
shrunken log2 fold change: 0.207

RRIRTRPPRLPRPRPRPPGTPRP
shrunken log2 fold change: 0.331

RRIRTRPPRLPRPRPRPPHEPRP
shrunken log2 fold change: 0.373

RRIRTRPPRLPRPRPRPPHWPRP
shrunken log2 fold change: 0.333

RRIRTRPPRLPRPRPRPPIDPRP
shrunken log2 fold change: -0.231

RRIRTRPPRLPRPRPRPPLDPRP
shrunken log2 fold change: 0.148

RRIRTRPPRLPRPRPRPPMDPRP
shrunken log2 fold change: 0.15

RRIRTRPPRLPRPRPRPPNDPRP
shrunken log2 fold change: -0.133

RRIRTRPPRLPRPRPRPPQNPRP
shrunken log2 fold change: 0.329

RRIRTRPPRLPRPRPRPPRFPRP
shrunken log2 fold change: 0.219

RRIRTRPPRLPRPRPRPPRRPRP
shrunken log2 fold change: 0.386

RRIRTRPPRLPRPRPRPPRTPRP
shrunken log2 fold change: 0.281

RRIRTRPPRLPRPRPRPPSFPRP
shrunken log2 fold change: 0.264

RRIRTRPPRLPRPRPRPPSHPRP
shrunken log2 fold change: -0.143

RRIRTRPPRLPRPRPRPPSMPRP
shrunken log2 fold change: 0.13

RRIRTRPPRLPRPRPRPPTGPRP
shrunken log2 fold change: 0.158

RRIRTRPPRLPRPRPRPPTRPRP
shrunken log2 fold change: 0.663

RRIRTRPPRLPRPRPRPPYNPRP
shrunken log2 fold change: -0.252

RRIRTRPPRLPRPRPRPPYSPRP
shrunken log2 fold change: -0.135

RRIRTRPPRLPRPRPRPQARPRP
shrunken log2 fold change: -0.0339

RRIRTRPPRLPRPRPRPQDHPRP
shrunken log2 fold change: -0.805

RRIRTRPPRLPRPRPRPQDSPRP
shrunken log2 fold change: -0.153

RRIRTRPPRLPRPRPRPQENPRP
shrunken log2 fold change: -0.165

RRIRTRPPRLPRPRPRPQFVPRP
shrunken log2 fold change: -0.127

RRIRTRPPRLPRPRPRPQGAPRP
shrunken log2 fold change: -0.0215

RRIRTRPPRLPRPRPRPQHLPRP
shrunken log2 fold change: -0.0898

RRIRTRPPRLPRPRPRPQHMPRP
shrunken log2 fold change: -0.518

RRIRTRPPRLPRPRPRPQKMPRP
shrunken log2 fold change: 0.176

RRIRTRPPRLPRPRPRPQKPPRP
shrunken log2 fold change: -0.0591

RRIRTRPPRLPRPRPRPQKWPRP
shrunken log2 fold change: -0.147

RRIRTRPPRLPRPRPRPQLKPRP
shrunken log2 fold change: 0.0828

RRIRTRPPRLPRPRPRPQLSPRP
shrunken log2 fold change: 0.212

RRIRTRPPRLPRPRPRPQMMPRP
shrunken log2 fold change: -0.0792

RRIRTRPPRLPRPRPRPQMVPRP
shrunken log2 fold change: -0.37

RRIRTRPPRLPRPRPRPQPDPRP
shrunken log2 fold change: -0.136

RRIRTRPPRLPRPRPRPQQHPRP
shrunken log2 fold change: -0.37

RRIRTRPPRLPRPRPRPQSDPRP
shrunken log2 fold change: -0.0398

RRIRTRPPRLPRPRPRPQTAPRP
shrunken log2 fold change: -0.0946

RRIRTRPPRLPRPRPRPQTGPRP
shrunken log2 fold change: -0.128

RRIRTRPPRLPRPRPRPQTNPRP
shrunken log2 fold change: -0.199

RRIRTRPPRLPRPRPRPQTRPRP
shrunken log2 fold change: 0.145

RRIRTRPPRLPRPRPRPQWEPRP
shrunken log2 fold change: 0.0154

RRIRTRPPRLPRPRPRPQYIPRP
shrunken log2 fold change: -0.331

RRIRTRPPRLPRPRPRPRANPRP
shrunken log2 fold change: 0.177

RRIRTRPPRLPRPRPRPRAWPRP
shrunken log2 fold change: 0.132

RRIRTRPPRLPRPRPRPRCRPRP
shrunken log2 fold change: 0.158

RRIRTRPPRLPRPRPRPRCSPRP
shrunken log2 fold change: -0.262

RRIRTRPPRLPRPRPRPRFAPRP
shrunken log2 fold change: 0.37

RRIRTRPPRLPRPRPRPRFRPRP
shrunken log2 fold change: 0.158

RRIRTRPPRLPRPRPRPRGCPRP
shrunken log2 fold change: 0.261

RRIRTRPPRLPRPRPRPRMGPRP
shrunken log2 fold change: 0.108

RRIRTRPPRLPRPRPRPRMTPRP
shrunken log2 fold change: 0.146

RRIRTRPPRLPRPRPRPRNCPRP
shrunken log2 fold change: -0.176

RRIRTRPPRLPRPRPRPRNNPRP
shrunken log2 fold change: -0.803

RRIRTRPPRLPRPRPRPRNQPRP
shrunken log2 fold change: -0.139

RRIRTRPPRLPRPRPRPRNYPRP
shrunken log2 fold change: -0.0303

RRIRTRPPRLPRPRPRPRQHPRP
shrunken log2 fold change: -0.374

RRIRTRPPRLPRPRPRPRRCPRP
shrunken log2 fold change: 0.0091

RRIRTRPPRLPRPRPRPRRMPRP
shrunken log2 fold change: 0.15

RRIRTRPPRLPRPRPRPRTEPRP
shrunken log2 fold change: 0.153

RRIRTRPPRLPRPRPRPRTKPRP
shrunken log2 fold change: 0.74

RRIRTRPPRLPRPRPRPRTYPRP
shrunken log2 fold change: -0.288

RRIRTRPPRLPRPRPRPRVEPRP
shrunken log2 fold change: 0.073

RRIRTRPPRLPRPRPRPRVHPRP
shrunken log2 fold change: 0.0778

RRIRTRPPRLPRPRPRPRWMPRP
shrunken log2 fold change: 0.0454

RRIRTRPPRLPRPRPRPRWVPRP
shrunken log2 fold change: 0.216

RRIRTRPPRLPRPRPRPRYEPRP
shrunken log2 fold change: -0.0806

RRIRTRPPRLPRPRPRPSAHPRP
shrunken log2 fold change: -0.229

RRIRTRPPRLPRPRPRPSCDPRP
shrunken log2 fold change: -0.347

RRIRTRPPRLPRPRPRPSCEPRP
shrunken log2 fold change: -0.252

RRIRTRPPRLPRPRPRPSCVPRP
shrunken log2 fold change: -0.185

RRIRTRPPRLPRPRPRPSEKPRP
shrunken log2 fold change: -0.0354

RRIRTRPPRLPRPRPRPSFAPRP
shrunken log2 fold change: -0.126

RRIRTRPPRLPRPRPRPSGNPRP
shrunken log2 fold change: -0.168

RRIRTRPPRLPRPRPRPSKHPRP
shrunken log2 fold change: -0.351

RRIRTRPPRLPRPRPRPSKSPRP
shrunken log2 fold change: -0.437

RRIRTRPPRLPRPRPRPSLCPRP
shrunken log2 fold change: -0.0129

RRIRTRPPRLPRPRPRPSLMPRP
shrunken log2 fold change: 0.0356

RRIRTRPPRLPRPRPRPSLVPRP
shrunken log2 fold change: 0.0852

RRIRTRPPRLPRPRPRPSMAPRP
shrunken log2 fold change: 0.444

RRIRTRPPRLPRPRPRPSMCPRP
shrunken log2 fold change: -0.377

RRIRTRPPRLPRPRPRPSMKPRP
shrunken log2 fold change: 0.00896

RRIRTRPPRLPRPRPRPSNLPRP
shrunken log2 fold change: -0.97

RRIRTRPPRLPRPRPRPSNSPRP
shrunken log2 fold change: -1.22

RRIRTRPPRLPRPRPRPSPAPRP
shrunken log2 fold change: 0.133

RRIRTRPPRLPRPRPRPSPLPRP
shrunken log2 fold change: -0.335

RRIRTRPPRLPRPRPRPSPPPRP
shrunken log2 fold change: -0.0898

RRIRTRPPRLPRPRPRPSQHPRP
shrunken log2 fold change: -0.387

RRIRTRPPRLPRPRPRPSRNPRP
shrunken log2 fold change: -0.0832

RRIRTRPPRLPRPRPRPSSGPRP
shrunken log2 fold change: 0.11

RRIRTRPPRLPRPRPRPSTKPRP
shrunken log2 fold change: -0.145

RRIRTRPPRLPRPRPRPSVYPRP
shrunken log2 fold change: -0.389

RRIRTRPPRLPRPRPRPSYDPRP
shrunken log2 fold change: -0.495

RRIRTRPPRLPRPRPRPSYRPRP
shrunken log2 fold change: -0.271

RRIRTRPPRLPRPRPRPSYSPRP
shrunken log2 fold change: -0.316

RRIRTRPPRLPRPRPRPTAMPRP
shrunken log2 fold change: 0.301

RRIRTRPPRLPRPRPRPTCMPRP
shrunken log2 fold change: -0.262

RRIRTRPPRLPRPRPRPTCWPRP
shrunken log2 fold change: 0.00427

RRIRTRPPRLPRPRPRPTDKPRP
shrunken log2 fold change: -0.55

RRIRTRPPRLPRPRPRPTEFPRP
shrunken log2 fold change: -0.0268

RRIRTRPPRLPRPRPRPTHMPRP
shrunken log2 fold change: -0.0271

RRIRTRPPRLPRPRPRPTHNPRP
shrunken log2 fold change: 0.0318

RRIRTRPPRLPRPRPRPTIVPRP
shrunken log2 fold change: -0.0242

RRIRTRPPRLPRPRPRPTKMPRP
shrunken log2 fold change: -0.355

RRIRTRPPRLPRPRPRPTMHPRP
shrunken log2 fold change: 0.0843

RRIRTRPPRLPRPRPRPTNEPRP
shrunken log2 fold change: -0.261

RRIRTRPPRLPRPRPRPTNNPRP
shrunken log2 fold change: -0.618

RRIRTRPPRLPRPRPRPTNPPRP
shrunken log2 fold change: -0.374

RRIRTRPPRLPRPRPRPTPDPRP
shrunken log2 fold change: 0.306

RRIRTRPPRLPRPRPRPTPFPRP
shrunken log2 fold change: 0.356

RRIRTRPPRLPRPRPRPTPKPRP
shrunken log2 fold change: 0.283

RRIRTRPPRLPRPRPRPTPNPRP
shrunken log2 fold change: 0.293

RRIRTRPPRLPRPRPRPTPRPRP
shrunken log2 fold change: 0.674

RRIRTRPPRLPRPRPRPTRFPRP
shrunken log2 fold change: 0.463

RRIRTRPPRLPRPRPRPTRMPRP
shrunken log2 fold change: 0.196

RRIRTRPPRLPRPRPRPTRPPRP
shrunken log2 fold change: 0.614

RRIRTRPPRLPRPRPRPTRQPRP
shrunken log2 fold change: 0.112

RRIRTRPPRLPRPRPRPTRRPRP
shrunken log2 fold change: 0.71

RRIRTRPPRLPRPRPRPTSCPRP
shrunken log2 fold change: 0.104

RRIRTRPPRLPRPRPRPTSFPRP
shrunken log2 fold change: 0.0555

RRIRTRPPRLPRPRPRPTWHPRP
shrunken log2 fold change: 0.153

RRIRTRPPRLPRPRPRPTWIPRP
shrunken log2 fold change: -0.0425

RRIRTRPPRLPRPRPRPTWWPRP
shrunken log2 fold change: 0.538

RRIRTRPPRLPRPRPRPTYCPRP
shrunken log2 fold change: -0.379

RRIRTRPPRLPRPRPRPTYGPRP
shrunken log2 fold change: -0.104

RRIRTRPPRLPRPRPRPTYNPRP
shrunken log2 fold change: -0.593

RRIRTRPPRLPRPRPRPVCMPRP
shrunken log2 fold change: -0.17

RRIRTRPPRLPRPRPRPVDAPRP
shrunken log2 fold change: 0.188

RRIRTRPPRLPRPRPRPVEIPRP
shrunken log2 fold change: -0.2

RRIRTRPPRLPRPRPRPVELPRP
shrunken log2 fold change: -0.0533

RRIRTRPPRLPRPRPRPVFDPRP
shrunken log2 fold change: -0.226

RRIRTRPPRLPRPRPRPVFSPRP
shrunken log2 fold change: -0.648

RRIRTRPPRLPRPRPRPVGVPRP
shrunken log2 fold change: 0.234

RRIRTRPPRLPRPRPRPVHQPRP
shrunken log2 fold change: -0.022

RRIRTRPPRLPRPRPRPVIPPRP
shrunken log2 fold change: -0.133

RRIRTRPPRLPRPRPRPVKCPRP
shrunken log2 fold change: -0.0123
